Measured values as given in patent US20190134064A1, “SELECTIVELY DEGLYCOSYLATED VITAMIN D-BINDING PROTEIN (GCMAF), CHOLECALCIFEROL (CALCIOL), AND PRODUCTION METHOD” (HG PHARMA GMBH, priority 2016, published 2019).

Experiments:
[1] = system: Peritoneal mouse cells; experiment: Phagocytosis activation (phagocytosis index, opsonized sheep red blood cells); format: cell-based; details: for phagocytic activity (comparison in words): compared with GcMAF-calcitriol or GcMAF alone; for Macrophage activity: phagocytosis index, three hours of drug treatment, opsonized SRBC cultured for 90 minutes, 250 macrophages counted
Experimental: Phagocytosis activation was determined as described by Hammarstrom S and Kabat EA in “Studies on specificity and binding properties of the blood group A reactive hemagglutinin from Helix pomatia”, Biochemistry 10: 1684-1692, 1971.
Peritoneal mouse cells were coated in a 24-well plate onto cover glasses. After three hours of drug treatment, the cultures were tested for phagocytic activity. Sheep red blood cells (SRBC) were opsonized using hemolytic rabbit serum (anti-sheep red blood C12HSB cells, Serotec Ltd. England). Opsonized SRBC (0.5%) in RPMI 1640 (serum-free) were layered onto each macrophage-coated cover glass and cultured for 90 minutes. The non-internalized erythrocytes were lyzed by immersing the cover glass in a hypotonic solution (⅕ PBS). The macrophages were fixed with methanol, air-dried, and Giemsa stained. The number of phagocytosed erythrocytes per cell was microscopically determined; 250 macrophages were counted for each data point. The data are expressed as a phagocytosis index, which is defined as the percentage of macrophages with engulfed erythrocytes multiplied by the average number of erythrocytes per macrophage.

[2] = system: receptor sites of the ELISA test; experiment: Binding to the receptor sites of the ELISA test for vitamin D; details: ELISA test selective for calcidiol
From the text: The standard test for vitamin D in the blood, the ELISA test, is selective for calcidiol (which has an OH group at position 25). […] The same applies for the complex GcMAF-calcitriol.

[3] = system: monocytes from human whole blood; experiment: Formation of superoxide radical anions; format: cell-based; set-up: Superoxide activity: unit not given here; details: for Superoxide activity: test substance 50 pg/ml, 3 h incubation; for formation of superoxide radical anions (comparison in words): compared with the other substances tested
Experimental: Determination of the formation of superoxide radical anions in monocytes from human whole blood was carried out as follows:
Isolation of peripheral mononuclear cells is carried out by density gradient centrifugation from heparinized whole blood. The blood is diluted 1:2 with PBS (without Ca/Mg) and layered onto 15 ml of Histopaque-1077. After this, the cell suspension is centrifuged for 30 min at 700×g and 20° C. The interphase with the mononuclear cells is carefully removed with a Pasteur pipette, made up with 30 ml of PBS (without Ca/Mg), and centrifuged for 5 min at 350×g. The supernatant is decanted, and the cells are taken up in RPMI 1640 medium and counted in the flow cytometer. The cells are adjusted to 10^5 monocytes/ml. For the test batch, 1 ml of cell suspension is pipetted into each 5 ml tube. LPS 100 ng/ml is used as a control. The test substance (GcMAF, GcMAF-calciol or GcMAF-calcitriol) is used in a concentration of 50 pg/ml. The cells are incubated for a total of 3 h in the CO2 incubator. 15 min before the end of incubation, 5 μl each of CD45-V450 antibody and 1 μl of a 1 mM MitoSOX stock solution are added. After this, the cell suspension is made up with 2 ml each of RPMI medium and centrifuged for 5 min at 350×g at room temperature. The supernatant is decanted, and the cells are resuspended in 500 μl of RPMI medium. The cells are measured and analyzed in the flow cytometer. Evaluation is carried out based on the average fluorescence intensity, as described by Saharuddin Bin Mohamad, Hideko Nagasa Wa, Yoshihiro Uto, and Hitoshi Hori in “Preparation of Gc Protein-Derived Macrophage Activating Factor (GcMAF) and its Structural Characterization and Biological Activities”, Anticancer Research 22: 4297-4300 (2002).
Superoxide formation assay
The method used was a modified version of that described by Johnston et al. In brief, after three-hour treatment of the samples, the plates were washed twice with PBS (-) and once with Krebs-Ringer phosphate buffer, pH 7.4, 1.5 ml of 50 μM cytochrome C in Krebs-Ringer phosphate buffer was added, and phorbol myristate acetate (PMA) was added to a final concentration of 5 μg/ml in each well and cultured for 90 minutes in a moistened incubator.
The reaction was stopped using an ice bath. The cultured medium was placed in an Eppendorf tube and centrifuged at 8000 g. The optical density of the supernatant was spectrometrically determined at 550 nm with reference at 540 nm (U-2000, Hitachi) using mixtures of plates without cells as a blank measurement. The concentration of reduced cytochrome C was determined using the equation E550nm=[…].

[4] = system: monocytic cells; experiment: Monocytic cells after oral administration; format: in vivo
[5] = Toxicity
From the text: (§1) The complex according to the invention can be orally administered. […] Moreover, the complex according to the invention is not toxic.

[6] = Vitamin D content in the blood after oral administration; format: in vivo
From the text: as §1

B1: GcMAF-calcitriol: comparative complex; same production method carried out with calcitriol instead of cholecalciferol (protein, UniProt P02774 17-474, looked up)
Vitamin D-binding protein: LERGRDYEKNKVCKEFSHLGKEDFTSLSLVLYSRKFPSGTFEQVSQLVKEVVSLTEACCAEGADPDCYDTRTSALSAKSCESNSPFPVHPGTAECCTKEGLERKLCMAALKHQPQEFPTYVEPTNDEICEAFRKDPKEYANQFMWEYSTNYGQAPLSLLVSYTKSYLSMVGSCCTSASPTVCFLKERLQLKHLSLLTTLSNRVCSQYAAYGEKKSRLSNLIKLAQKVPTADLEDVLPLAEDITNILSKCCESASEDCMAKELPEHTVKLCDNLSTKNSKFEDCCQEKTAMDVFVCTYFMPAAQLPELPDVELPTNKDVCDPGNTKVMDKYTFELSRRTHLPEVFLSKVLEPTLKSLGECCDVEDSTTCFNAKGPLLKKELSSFIDKGQELCADYSENTFTEYKKKLAERLKAKLPDATPTELAKLVNKHSDFASNCCSINSPPLYCDSEIDAELKNIL
modifications: deglycosylated (GcMAF); complexed with calcitriol
notes: comparative complex; same production method carried out with calcitriol instead of cholecalciferol
Question: Which “phagocytic activity (comparison in words)” value [1] does the source give for B1 here?
Answer: virtually identical to the phagocytic activity of GcMAF alone

Question: And the Macrophage activity [1]?
Answer: 73.2

Question: And the “binding to the receptor sites of the ELISA test” value (shortened to “binding to the receptor sites”) [2]?
Answer: does not bind

Question: What about the Superoxide activity [3] of the same molecule?
Answer: 188

B2: GcMAF, purchased from Metavectrum, Germany: GcMAF purchased from Metavectrum, Germany (protein, UniProt P02774 17-474, looked up)
Vitamin D-binding protein: LERGRDYEKNKVCKEFSHLGKEDFTSLSLVLYSRKFPSGTFEQVSQLVKEVVSLTEACCAEGADPDCYDTRTSALSAKSCESNSPFPVHPGTAECCTKEGLERKLCMAALKHQPQEFPTYVEPTNDEICEAFRKDPKEYANQFMWEYSTNYGQAPLSLLVSYTKSYLSMVGSCCTSASPTVCFLKERLQLKHLSLLTTLSNRVCSQYAAYGEKKSRLSNLIKLAQKVPTADLEDVLPLAEDITNILSKCCESASEDCMAKELPEHTVKLCDNLSTKNSKFEDCCQEKTAMDVFVCTYFMPAAQLPELPDVELPTNKDVCDPGNTKVMDKYTFELSRRTHLPEVFLSKVLEPTLKSLGECCDVEDSTTCFNAKGPLLKKELSSFIDKGQELCADYSENTFTEYKKKLAERLKAKLPDATPTELAKLVNKHSDFASNCCSINSPPLYCDSEIDAELKNIL
modifications: selectively deglycosylated (GcMAF)
Question: With B2 as the molecule, how does the Macrophage activity [1] read?
Answer: 68

Question: And the Superoxide activity [3]?
Answer: 150

B3: GcMAF-calciol: dimeric complex of a selectively deglycosylated vitamin D-binding protein (GcMAF) and cholecalciferol (calciol) (protein, UniProt P02774 17-474, looked up)
Vitamin D-binding protein: LERGRDYEKNKVCKEFSHLGKEDFTSLSLVLYSRKFPSGTFEQVSQLVKEVVSLTEACCAEGADPDCYDTRTSALSAKSCESNSPFPVHPGTAECCTKEGLERKLCMAALKHQPQEFPTYVEPTNDEICEAFRKDPKEYANQFMWEYSTNYGQAPLSLLVSYTKSYLSMVGSCCTSASPTVCFLKERLQLKHLSLLTTLSNRVCSQYAAYGEKKSRLSNLIKLAQKVPTADLEDVLPLAEDITNILSKCCESASEDCMAKELPEHTVKLCDNLSTKNSKFEDCCQEKTAMDVFVCTYFMPAAQLPELPDVELPTNKDVCDPGNTKVMDKYTFELSRRTHLPEVFLSKVLEPTLKSLGECCDVEDSTTCFNAKGPLLKKELSSFIDKGQELCADYSENTFTEYKKKLAERLKAKLPDATPTELAKLVNKHSDFASNCCSINSPPLYCDSEIDAELKNIL
modifications: deglycosylated (GcMAF); complexed with cholecalciferol
Question: Which “monocytic cells, subsequently converted into macrophages” value [4] does the source give for B3 here?
Answer: significant increase

Question: And the toxicity [5]?
Answer: not toxic

Question: And the “phagocytic activity (comparison in words)” value [1]?
Answer: significantly higher

Question: And the Macrophage activity [1]?
Answer: 83.5

Question: What about the “binding to the receptor sites” value [2] of the same molecule?
Answer: does indeed bind

Question: What about the “formation of superoxide radical anions (comparison in words)” value [3] of the same molecule?
Answer: lower

Question: And the “formation of superoxide radical anions (comparison in words)” value ([3]; listed as complex according to the invention)?
Answer: lowest of all of the substances tested

Question: And the Superoxide activity [3]?
Answer: 142

Question: And the “vitamin D content in the blood” value ([6]; 12 h after oral administration, 35.9 nM before administration)?
Answer: 44.25 nM

Question: And the “absorption in oral administration” value ([6]; oral administration)?
Answer: absorbed by the body in oral administration

B4: Gc-calcidiol: complex of vitamin D-binding protein (Gc) and calcidiol (protein, UniProt P02774 17-474, looked up)
Vitamin D-binding protein: LERGRDYEKNKVCKEFSHLGKEDFTSLSLVLYSRKFPSGTFEQVSQLVKEVVSLTEACCAEGADPDCYDTRTSALSAKSCESNSPFPVHPGTAECCTKEGLERKLCMAALKHQPQEFPTYVEPTNDEICEAFRKDPKEYANQFMWEYSTNYGQAPLSLLVSYTKSYLSMVGSCCTSASPTVCFLKERLQLKHLSLLTTLSNRVCSQYAAYGEKKSRLSNLIKLAQKVPTADLEDVLPLAEDITNILSKCCESASEDCMAKELPEHTVKLCDNLSTKNSKFEDCCQEKTAMDVFVCTYFMPAAQLPELPDVELPTNKDVCDPGNTKVMDKYTFELSRRTHLPEVFLSKVLEPTLKSLGECCDVEDSTTCFNAKGPLLKKELSSFIDKGQELCADYSENTFTEYKKKLAERLKAKLPDATPTELAKLVNKHSDFASNCCSINSPPLYCDSEIDAELKNIL
modifications: complexed with calcidiol
Question: For B4, which “binding to the receptor sites” value [2] is on record?
Answer: does not bind

B5: GcMAF, produced as described: selectively deglycosylated vitamin D-binding protein, self-produced, with final filtration via a 100,000 Da filter (protein, UniProt P02774 17-474, looked up)
Vitamin D-binding protein: LERGRDYEKNKVCKEFSHLGKEDFTSLSLVLYSRKFPSGTFEQVSQLVKEVVSLTEACCAEGADPDCYDTRTSALSAKSCESNSPFPVHPGTAECCTKEGLERKLCMAALKHQPQEFPTYVEPTNDEICEAFRKDPKEYANQFMWEYSTNYGQAPLSLLVSYTKSYLSMVGSCCTSASPTVCFLKERLQLKHLSLLTTLSNRVCSQYAAYGEKKSRLSNLIKLAQKVPTADLEDVLPLAEDITNILSKCCESASEDCMAKELPEHTVKLCDNLSTKNSKFEDCCQEKTAMDVFVCTYFMPAAQLPELPDVELPTNKDVCDPGNTKVMDKYTFELSRRTHLPEVFLSKVLEPTLKSLGECCDVEDSTTCFNAKGPLLKKELSSFIDKGQELCADYSENTFTEYKKKLAERLKAKLPDATPTELAKLVNKHSDFASNCCSINSPPLYCDSEIDAELKNIL
modifications: selectively deglycosylated (GcMAF)
Question: Which results are given for B5?
Answer: Macrophage activity [1]: 73.0; Superoxide activity [3]: 199
